Source: US6160106

Target: Fas/APO-1 (human) (UniProt P25445)

agonistic anti-APO-1 monoclonal antibody
cell death of HeLa cells (rounding up and detachment, neutral red dye uptake): 70%
